# In the RNAGym collection of RNA variant scans (doi:10.1073/pnas.2313332121):
# B1: TPR t1 (parent)
# chain: GACCAAUCUGCCCUCAGAGCUCGAGAACAUCUUCGGAUGCAGAGGAGGCAGGCUUCGGUGGCGCGAUAGCGCCAACGUCCUCAACCUCCAAUGCAUCCCACCACAUGAUGAUGCCUGAAGAGCCUUGGUUUUUUG
# Variants of: B1
# Test: polymerase ribozyme fitness, log enrichment relative to wild type (log ratio); higher = more active; in vitro selection for triplet polymerase activity
# Outline: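 The heterodimeric triplet polymerase ribozyme's subunits were each mutagenized into PCR-built libraries and transcribed. Every library was selected once, in triplicate, by annealing with a biotinylated primer, the partner subunit and triplets, incubating frozen at −7 °C, gel-excising extended constructs, capturing on streptavidin beads and running RT-PCR. Input and output libraries were Illumina-sequenced, with genotypes kept only at ≥10 input reads and ≥1 read per output. Fitness, from inverse-variance-weighted replicate averages, is the base-2 logarithm of genotype enrichment over wild-type enrichment.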
row,Variant,polymerase ribozyme fitness (log ratio)
1,GACCAAUCUGCCCUCAGAGCUCGAGAACAUCUUCGGAUGCAGAGGAGGCAGGGUUCGGUGGCGCGAUAGUGCCAACGUCCUCAACCUCCAAUGCAUCCCACCACAUGAUGAUGCCUGAAGAGCCCUGGUUUUUUG [C53G C70U U125C],-3.18
2,GACCAAUCUGCCCUCAGAGCUCGAGAACAUCUUCGGAUGCAGAGGAGGCAGGGUUCGGUGGCGCGAUAGCGCCAACGUCCUCAACCUCCAAUGCAUCCCAACACAUGAUGAUGCCUGAAGAGCCUUGGUUUUUUG [C53G C101A],-1.03
3,GACCAAUCUGCCCUCAGAGCUCGAGAACAUCUUCGGAUGCAGAGGAGGCAGGGUUCGGUGGCGCGAUAGCGCCAACGUCCUCAACCUCCAAUGAAUCCCACCACAUGAUGAUGCGUGAAGAGCCUUGCUUUUUUG [C53G C94A C115G G128C],-4.56
4,GACCAAUCUGCCCUCAGAGCUCGAGAACAUCUUCGGAUGCAGAGGAGGCAGGAUUCGGUGGCGCGAUAGCGCCAACGUCCUCAACCUCCAAGGCUUCCCACCACAUGAUGAUGCCUGAAGAGCCUUGGUUUUUUG [C53A U92G A95U],-2.44
5,GACCAAUCUGCCCUCAGAGCUCGAGAACAUCUUCGGAUGCAGAGGAGGCAGGAUUCGGUGGCGCGAUAGCGCCAACGUCCUCAACCCCCAAUGCAUCCCACCACAUGAUGAUGCCUGAAGAGCCUUGGUUUUUUG [C53A U87C],0.506
6,GACCAAUCUGCCCUCAGAGCUCGAGAACAUCUUCGGAUGCAGAGGAGGCAGGAUUCGGUGGCGCGAUACCGCCAACUUCCUCAACCUCCAAUGCAACCCACCACAUGAUGAUGCCUAAAGAGCCUUGGUUUUUUG [C53A G69C G77U U96A G117A],-5.87
7,GACCAAUCUGCCCUCAGAGCUCGAGAACAUCUUCGGAUGCAGAGGAGGCAGGAUUCGGUGGCGCGAUAGCGCCAACGCCCUCAACCUCCAAUGCAUCCCACCACAUGAUGAUUCCUGAAGAGCCUUGGUUUUUUG [C53A U78C G113U],-3.16
8,GACCAAUCUGCCCUCAGAGCUCGAGAACAUCUUCGGAUGCAGAGGAGGCAGGAUUCGGUGGCGCGAUAUCGCCAACGUCCUCAACCUCCAAUGCAUCCCACCACAUGAUGAUGCCUGAACAGCCUUGGUUUUUUG [C53A G69U G120C],1.96
9,GACCAAUCUGCCCUCAGAGCUCGAGAACAUCUUCGGAUGCAGAGGAGGCAGGAUUCGGUGGCGCGAUAUCGCCAACGGCCUAAACCUCCAAUGCAUCCCACCACAUGAUGAUGCCUGAAGAGCCUUGGUUUUUUG [C53A G69U U78G C82A],-0.279
10,GACCAAUCUGCCCUCAGAGCUCGAGAACAUCUUCGGAUGCAGAGGAGGCAGGGUUCGGUGGCGCGAUAGCGCCAACGUCCUCAACCUCCAAUGCAUCCCACAACAUGAUGAUGCCUGAAGAGCCUUGGUUUUUUG [C53G C102A],-2.97
11,GACCAAUCUGCCCUCAGAGCUCGAGAACAUCUUCGGAUGCAGAGGAGGCAGGGUUCGGUGGCGUGAUAGCGCCAACGUCCUCAACCUCCAAUGCAUCCCACCACAUGAUGAUGCCUGAAAAGCCUUGGUUUUUUG [C53G C64U G120A],1.12
12,GACCAAUCUGCCCUCAGAGCUCGAGAACAUCUUCGGAUGCAGAGGAGGCAGGGUUCGGUGGCGCGAUAGAGCCAACGUCCUCAACCUCCAAUGCAUCCCACCACAUGAUGAUGCCUAAAGAGCCUUGGUUUUUUG [C53G C70A G117A],-3.42
13,GACCAAUCUGCCCUCAGAGCUCGAGAACAUCUUCGGAUGCAGAGGAGGCAGGAUUCGGUGGCGCGAUAGCGCCAACGUCCGCAACCUCCGAUGCAUCCCACCACAUGAUGAUGCCUGAAGAGCCUUGGUUUUUUG [C53A U81G A90G],0.427
14,GACCAAUCUGCCCUCAGAGCUCGAGAACAUCUUCGGAUGCAGAGGAGGCAGGGUUCGGUGGCGCGAUAGCGGCAACGUCCUCAACCUACAAUGCAUCCCACCACAUGAUGAUGCCUGAAGAGCCUUGGUUUUUUG [C53G C72G C88A],-0.997
15,GACCAAUCUGCCCUCAGAGCUCGAGAACAUCUUCGGAUGCAGAGGAGGCAGGGUUAGGUGGCGCGAUAGCGCCAACGUCCUCAACCUCCAAUGCAUCCCACCACAUGAUGAUGCCUCAAGAGCCUUGGUUUUUUG [C53G C56A G117C],-4.49
16,GACCAAUCUGCCCUCAGAGCUCGAGAACAUCUUCGGAUGCAGAGGAGGCAGGAUUCGGUGCCGCGAUAGCGCCAACGCCCUCAAUCUCCAAUACAUCCCACCACAUGAUGAUGCCUGAAGAGCCUUGGUUUUUUG [C53A G61C U78C C85U G93A],-0.976
17,GACCAAUCUGCCCUCAGAGCUCGAGAACAUCUUCGGAUGCAGAGGAGGCAGGAUUCGGUGGCGCGAUAGCGCCAACGCCCUCAACCUCCAAUGCAUCCCACCAAAUGAUGAUGCCUGAAGAGCCUUGGUUUUUUG [C53A U78C C104A],-1.25
18,GACCAAUCUGCCCUCAGAGCUCGAGAACAUCUUCGGAUGCAGAGGAGGCAGGGUUCGGUGGCGCGAUAGCGCCGACGUCCUCAACCUCCAAUGCAUCCCACCACAUGAUGAUGCUUGAAGAGCCUUGGUUUUUUG [C53G A74G C115U],-1.15
19,GACCAAUCUGCCCUCAGAGCUCGAGAACAUCUUCGGAUGCAGAGGAGGCAGGGUUCGGUGGCGCGAUGGCGCCAACGUCCUCAACCGCCAAUGCAUCCCACCACAUGAUGAUGCCUGAAGAGCCUUGGUUUUUUG [C53G A68G U87G],-4.16
20,GACCAAUCUGCCCUCAGAGCUCGAGAACAUCUUCGGAUGCAGAGGAGGCAGGGUUCGGUGGCGCGAUAGCGCCAACGUCCUCAACCUCUAAUGCAUCCCACCACAUGAUGAUGCUUGAAGAGCCUUGGUUUUUUG [C53G C89U C115U],-2.67
21,GACCAAUCUGCCCUCAGAGCUCGAGAACAUCUUCGGAUGCAGAGGAGGCAGGGUUCGGUGGCGCGAUAGCGCCAACGUCCUCAACCUCCAAUGCAUCCCACCACAUGAUGAUGCCUGAUGAGCCUUCGUUUUUUG [C53G A119U G127C],-1.2
